The results in this text go back to patent publication US20150218578.

This data set relates to T1, OsMYB55 (Oryza sativa).
T1 sequence: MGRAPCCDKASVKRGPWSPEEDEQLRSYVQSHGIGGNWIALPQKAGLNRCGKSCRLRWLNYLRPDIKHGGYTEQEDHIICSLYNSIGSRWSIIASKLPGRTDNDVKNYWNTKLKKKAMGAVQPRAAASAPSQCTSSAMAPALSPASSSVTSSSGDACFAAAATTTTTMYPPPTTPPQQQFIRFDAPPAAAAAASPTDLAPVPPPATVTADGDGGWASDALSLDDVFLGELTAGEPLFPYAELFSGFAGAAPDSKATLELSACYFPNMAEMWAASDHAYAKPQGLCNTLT
The data set can be described thus: cell_activity. The following applies: GUS transactivation in tobacco leaf vs empty vector; almost eight-fold.
Regarding OsGAD3 promoter 1.5-2 kb (GUS reporter), the activity was found to be 8 fold.
Under OsGAT1 promoter 1.5-2 kb (GUS reporter) stands 8 fold; under “OsGS1;2 promoter 1.5-2 kb (GUS reporter)”, 8 fold.
